Here are results for 5 molecules from US20240032514A1 (RENGENE BIOTECHNOLOGY, published 2024).

For assay [1], the target named is T1, human C-reactive protein (human, UniProt P02741 19-224).
T1 construct: also called CRP; antigen CRP
T1 sequence (looked up): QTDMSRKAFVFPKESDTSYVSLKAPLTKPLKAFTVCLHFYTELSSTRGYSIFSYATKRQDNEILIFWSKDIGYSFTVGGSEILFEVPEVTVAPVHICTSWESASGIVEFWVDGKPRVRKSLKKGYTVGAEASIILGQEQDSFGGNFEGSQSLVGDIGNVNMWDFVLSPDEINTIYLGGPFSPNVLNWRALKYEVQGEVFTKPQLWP
Nature of the assay: BLI (FORTEBIO-OCTET), antibody at 10 µg/mL, CRP at 200-3.13 nM. For orientation: BLI is a label-free optical method that tracks binding on a fibre tip over time.

The target of the next assay is T2, OVA (UniProt P01012 2-386).
T2 construct: Control protein coated at 2 µg/mL; also called unrelated protein OVA
T2 sequence (looked up): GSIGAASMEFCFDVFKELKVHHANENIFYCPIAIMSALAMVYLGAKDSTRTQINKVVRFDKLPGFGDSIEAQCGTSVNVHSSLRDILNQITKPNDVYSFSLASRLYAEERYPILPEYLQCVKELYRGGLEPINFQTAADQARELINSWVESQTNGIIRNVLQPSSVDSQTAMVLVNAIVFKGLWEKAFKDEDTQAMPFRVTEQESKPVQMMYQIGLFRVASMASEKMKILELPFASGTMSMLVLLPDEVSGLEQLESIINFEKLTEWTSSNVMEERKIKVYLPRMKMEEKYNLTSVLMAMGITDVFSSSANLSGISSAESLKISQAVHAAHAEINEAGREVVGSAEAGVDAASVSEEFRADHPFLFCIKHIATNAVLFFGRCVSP
Nature of the assay: ELISA, protein coated at 2 µg/mL, antibody in gradient dilution. A general note: ELISA stands for enzyme-linked immunosorbent assay.

In a further assay the target is T3, BSA (UniProt P02769 25-607).
T3 construct: Control protein coated at 2 µg/mL; also called unrelated protein BSA
T3 sequence (P02769 25-607 limits assumed): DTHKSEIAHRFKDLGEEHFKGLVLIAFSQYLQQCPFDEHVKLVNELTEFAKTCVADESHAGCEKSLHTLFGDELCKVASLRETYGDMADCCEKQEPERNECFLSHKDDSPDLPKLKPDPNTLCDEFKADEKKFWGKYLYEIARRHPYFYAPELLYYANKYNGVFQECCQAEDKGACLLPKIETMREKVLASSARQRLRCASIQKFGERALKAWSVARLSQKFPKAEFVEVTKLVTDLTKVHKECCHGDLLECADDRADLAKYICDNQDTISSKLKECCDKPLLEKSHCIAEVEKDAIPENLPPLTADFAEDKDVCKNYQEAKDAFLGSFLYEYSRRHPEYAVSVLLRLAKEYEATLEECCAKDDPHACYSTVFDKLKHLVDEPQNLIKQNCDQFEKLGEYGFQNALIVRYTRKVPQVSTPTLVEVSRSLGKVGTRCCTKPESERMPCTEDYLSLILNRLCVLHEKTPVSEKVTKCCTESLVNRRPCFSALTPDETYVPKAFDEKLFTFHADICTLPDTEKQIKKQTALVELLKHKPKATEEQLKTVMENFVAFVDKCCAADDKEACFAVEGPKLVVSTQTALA
The assay is described as above.

The target in assay [2] is T1, human C-reactive protein.
For assay [3], the target named is T1, human C-reactive protein. Nature of the assay: ELISA, CRP coated at 2 µg/mL.

Where two headings read alike, the source gives them in different places.

Broadly, the Kd is the equilibrium constant for the complex coming apart. Higher therefore signals a looser complex. The term koff denotes the first-order rate constant of dissociation. In general, kon refers to a measure of how fast the partners come together. Low readings indicate slower complex formation, high ones faster complex formation.

B1: D5S-12 heavy chain antibody (VHH)
VHH: EVKLLESGGGLVKPGGSLKLSCAASGFTFSDYGMSWIRQTPDKRLEWVATISSGNTYTYYSKSVKGRFTISRDNAKNTLYLQMSSLKSEDTAIYYCSRHTSDYYPLSQGTLVTVSA
In the assay with human C-reactive protein [1], B1 registered a Kd of 0.987 nM, a koff of 8.44e-05 s⁻¹ and a kon of 85500 M⁻¹ s⁻¹. For the same molecule, the binding result with OVA is given as “no binding”. Besides, the binding result in the assay with BSA is reported as “no binding”.

B2: G3-35 (VHH)
VHH: EVQLQQSGPELVKPGASVRMSCKASGYTFTDYNIHWVKQSHGESLEWIGFVNPDNGDTYYYKNFKGKATLTFNRSSSTAYMDLRSLTSEDSAVYYCARGTTVEKDYWGQGTTLTVSS
As to B2, the binding result with human C-reactive protein [2] was “binds”.

B3: G3-71 (VHH)
VHH: EVQLQQSGPELVKPGASVRMSCKASGYTFTDYNIHWVKQSHGESLEWIGFINPDNGDTYYYKNFRGKATLTLNKSSSTAYMDLRSLTSEDSGVYYCARGTTVEKDYWGQGTILTVSS
Consider B3, for which the binding result with human C-reactive protein [2] is listed as “binds”.

B4: G3-23 (VHH)
VHH: EVQLQQSGPEVLKPGTSVRMSCKASGYTFTDYNIHWVKQSRGESLEWIGFVNPDTGDTYYYKNFKGKATLTFNRSSSTAYMDLRSLTSEDSAVYYCARGTTVEKDYWGQGTILTVSS
B4: in the assay with human C-reactive protein [2], the binding result is “binds”.

B5: D4-12 heavy chain antibody variable region (VHH)
VHH: EVQLQQSGPELVKPGASVKISCKASGYMFSDYYMNWVKQSHGKSLEWIGNVDPNTDNTIYNQNFKDKATLTVDRSSRTAYMELHSLTSEDSAVYYCARSRFYDPWFAYWGQGTLVTVSA
Consider B5, for which the binding result with human C-reactive protein [3] is listed as “binds”.
